Experimental data reported in patent publication US20210285949A1.

Biological target: human recombinant adrenomedullin receptor (CRLR+RAMP3) (human)

IC50 (read off the curve); cAMP HTRF assay, agonist 5.63 nM hADM: 200 nM
Substance: antagonist (human ADM 22-52) (from UniProt P35318) (peptide)
